Several values for one entry are separate records, joined by “and”; a condition that tells them apart may be missing. Equal values may be shown once. Bridge positions count the residues as written; N and C are the ends.

For one data set, the target named is α‐thrombin (αT). Description: enzyme inhibition (amidolytic activity on S2238).
Data set [1] addresses recombinant wild type α‐thrombin. Description: other fluorescence titration; intrinsic fluorescence of thrombin (50 nM) at 334 nm recorded at increasing peptide concentration; TBS pH 7.4, 0.15 M NaCl, 0.1% PEG-8000, 25°C; one-site model.
For data set [2], the target named is [F]‐Haem(45–57), N^α‐fluoresceinated analogue of the peptide 45–57 (Haemadipsa sylvestris). Description: other fluorescence titration; thrombin (S195A by the methods) or its hirudin complex added to the fluoresceinated peptide (60 nM); excitation 492 nm, emission 516 nm; TBS, 25°C.
In data set [3] the target is recombinant wild type α‐thrombin. The experiment in a line: enzyme inhibition (amidolytic activity on S2238).

Substance “H-IRFGMGKVPCPDGEVGYTCDCGEKICLYGQSCNDGQCSGDPKPSSEFEEFEIDEEEK-OH (disulfide 10-19, 21-32, 26-37)” had a T m higher than hirudin of 22 °C.

What is called Ki is the dissociation constant of the complex between target and ligand, obtained from inhibition or displacement. For the substance Haem(1–10) wild type (peptide), the Ki in the data set with α‐thrombin (αT) came to 1900 nM.

The Kd is a measure of binding affinity in units of concentration. In the case of Haem(45–57) (peptide), the Kd in data set [1] is 1600 nM.

In data set [2], “catalytically inactive αT S195A mutant (enzyme)” registered a Kd of 350 nM.

In the data set with α‐thrombin (αT), “full‐length haemadin Met5nLeu analogue (natural protein)” registered a fold increase of KI(fast) against wild-type haemadin of 2 fold and a fold increase of KI(slow) against wild-type haemadin of 2 fold.

For orientation: koff means a measure of how fast the partners let go of each other. One may read the kon as the rate constant with which the complex forms. Regarding “full‐length wild‐type haemadin 1–57 (natural protein)”, in data set [3], the Ki was 0.000214 nM, the koff was determined as 4.83e-05 s⁻¹ and the kon is 2.25e+08 M⁻¹ s⁻¹. Also, the Ki with α‐thrombin (αT) is 0.00023 nM and 0.0015 nM.

With preformed S195A‐hirudin complex, the Kd in data set [2] was determined as 12800 nM.

These data come from PMC10683372.
